Results published in article PMC12454647.

How the values were obtained:
[1] = target: BdhE (bifunctional dehydrogenase E) from Halomonas eurihalina (Halomonas eurihalina); test: native gel or EMSA; blue native PAGE, 3-14% polyacrylamide gradient, 150 V for ~75 minutes; purified AdhE 5 or 10 ug, BdhE 1 or 2 ug
[2] = target: BdhE (bifunctional dehydrogenase E) from Halomonas eurihalina (Halomonas eurihalina); test: cryo-EM structure; single particle analysis, 2.02 mg/mL AdhE or 1.35 mg/mL BdhE, no cofactors added, Talos Arctica 200 kV, CryoSPARC

- stoichiometry N [1]: 4
- stoichiometry N [2]: 4
Substance: BdhE (bifunctional dehydrogenase E) from Halomonas eurihalina (enzyme)
